Experimental data taken from the supplement of paper PMC9170038.

Test system: MS2 coat protein
Assay: apparent KD of MS2 coat protein; designed switch direction (-1 OFF switch, 1 ON switch): -1; higher = weaker reporter binding
Method in brief: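 RNA switches sharing common flanks were transcribed by stalled E. coli RNA polymerase on Illumina chips. A doubling series of SNAP-549-labelled MS2 coat protein, from 0.7 or 1.5 nM to 3 µM, was applied in Tris-HCl pH 7.5 buffer with KCl, MgCl2, BSA, DTT, tRNA and Tween-20. Each step lasted 0.8–1.5 h at the bottom of the series and 10–20 min at the top. Normalised cluster fluorescence was curve-fitted, giving apparent KD as the per-design median over clusters.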

[1] = Eterna round: R95, input ligand: microRNA oligo, concentration not stated
[2] = input ligand: microRNA oligo, concentration not stated
[3] = Eterna round: R95, input ligand: FMN 200 uM
[4] = Eterna round: R95, input ligand: none

Row | Sequence | apparent KD of MS2 coat protein (input ligand: FMN 200 uM) [µM] | apparent KD of MS2 coat protein (input ligand: none) [µM] | apparent KD of MS2 coat protein [1] [µM] | apparent KD of MS2 coat protein [2] [µM] | apparent KD of MS2 coat protein [3] [µM] | apparent KD of MS2 coat protein [4] [µM]
1 | GUGUUGCGAGGAUAUAUAAGGGUAUGUUCUUAGGAUAUGGAACAUGAGGAUCACCCAUGUAGAAGGUGCAUAAC [JR_Ex2_Sub046] (Eterna round: R97, puzzle: Exclusion 2) | 0.459 | 0.761 | – | – | – | –
2 | AUCUUGUAAGGAUAUCUUACAAGUGACUUCGGUCACAGUUAAGAGAAGGUACAUGAGGAUCACCCAUGUAUAAC [Ex4-3: 38] (puzzle: Exclusion 4) | – | – | 0.0238 | – | – | –
3 | ACAUGAGGAUCACCCAUGUGAAAACAAUGGCUGACACAGAGAUAGGAUAUAUGUGCAUAUCAAACAUAGAAGGGUCAUUACUGG [Deportation 86 - Jieux - Exclusion NG 3] (Eterna round: R96, puzzle: Exclusion NG 3) | 0.0426 | 0.0462 | – | 0.0402 | – | –
4 | AUCAGCUCGUCAGGAUAUACAUGCGUGCUUCGGCACGUAUGAUAGAUCACAUGAGGAUCACCCAUGUAGAAGGGACGAGCUGAU [ENG2/4-B3] (Eterna round: R96, puzzle: Exclusion NG 2) | 0.0153 | 0.0127 | – | 0.00919 | – | –
5 | GUGUAGUCAGGAUAUACAUAGGAAGAGAAGAGAAGAGAAGCACAUGAGGAUCACCCAUGUAGAAGGGACAGUGU [Excluse me!! 4 - Jieux - Exclusion 2] (puzzle: Exclusion 2) | – | – | 0.0614 | – | 0.0857 | 0.061
6 | UCAAGCUUUAAGCGUGUGAACAUGAGGAUCACCCAUGUAUUUUUGGUUAGGAGUUCUGUAAGGGAUGCUCGUCUUAU [JR_SWV3TOV1_Sub093] (puzzle: Sensor v3, turn-off variant 1) | – | – | 0.0475 | – | 0.0374 | 0.0507
7 | GUACAACAUGAGGAUCACCCAUGUGAGGAUAUGCGAAUUUCAUCAAAAGAUGAAAUUUGCAGAAGGCACUGUAC [Omei Ex1 A10] (Eterna round: R97, puzzle: Exclusion 1) | 0.0192 | 0.0208 | – | – | – | –
8 | CCUCUACAUGAGGAUCACCCAUGUGAGGAUAUCUCGGAAAAGCCACUUAAGGUACUCCAGAGAAGGCACGUGUA [Rileed] (puzzle: Exclusion 1) | – | – | 0.0152 | – | – | –
9 | GUACUGAAGCUUUGCUUUAGUCGUACAUGAGGAUCACCCAUGUAGGAUAUGGUAGGCUUUGCUUACCAGAAGGACAGAGUGAUC [JL EXNG3 1.25] (Eterna round: R96, puzzle: Exclusion NG 3) | 0.0686 | 0.0853 | – | 0.0837 | – | –
10 | UCUGGUCGAGGAUAUACAUGAGGAUCACCCAUGUGGUCACGUGACUUCGGUCACGAAUGUAGAAGGCGACCAGA [E3/3-A6] (Eterna round: R97, puzzle: Exclusion 3) | 0.0267 | 0.051 | – | – | – | –
11 | AAGCGGUGAGGAUAUACAUGAGGAUCACCCAUGUGUAUGCAGAGGGCGCGGUGUUGGUGUAGAAGGCACUGGGA [EX3 B.10] (Eterna round: R97, puzzle: Exclusion 3) | 0.023 | 0.0194 | – | – | – | –
12 | AAAUCAGAGGAGGAUAUGGUAUAGGAAAUGGUGCCAGAAGGUUUCACAUGAGGAUCACCCAUGUCAAAUAGUGA [EX6 #62] (Eterna round: R97, puzzle: Exclusion 6) | 0.0492 | 0.0604 | – | – | – | –
13 | AUAAUACAUGUAGGAUAUCUGCACGAUUAGUGCAGAGAAGGACAUGAGGAUCACCCAUGUAAUUAAGAUCAAUUAUUAAAUUAU [ENG1/3-D1] (Eterna round: R96, puzzle: Exclusion NG 1) | 0.238 | 0.057 | – | 0.0639 | – | –
14 | ACAAGCUCUGUGGGUGGGUACAUGAGGAUCACCCAUGUUUUGCUCGUCUUGUGGGCCCGGGCCCGCGGCCCGGGCCC [-41.4, -69.7, A 12%] (Eterna round: R97, puzzle: Sensor, turn-off variant 1) | 0.604 | 1.18 | – | – | – | –
15 | CUUUACAAGCUAAGAUCCUACAUGAGGAUCACCCAUGUGGUCCGGUGACGUGAGUCACCGGACUUAGCUCGUCUUGC [salish99_S_TOV1_R5_094] (Eterna round: R97, puzzle: Sensor, turn-off variant 1) | 0.0312 | 0.0368 | – | – | – | –
16 | AAUAAUAAGGAGGAUAUCGUAUCGGAGACGAUACGAGAAGGCUUAACAUGAGGAUCACCCAUGUUCCUCAAUAA [Mat - Exclusion 6 - Eli Mod - D89] (puzzle: Exclusion 6) | – | – | 0.0352 | – | – | –
17 | ACAUGAGGAUCACCCAUGUCCGUCUGAUCUGUCUCGGCUGUCGAGGAUAUAGCCCGGUAUCCGCGCUAGAAGGUGGGAGUCGGC [Aenatbe mod 99] (Eterna round: R96, puzzle: Exclusion NG 3) | 0.0298 | 0.0357 | – | 0.0253 | – | –

Row | Sequence | apparent KD of MS2 coat protein (input ligand: FMN 200 uM) [µM] | apparent KD of MS2 coat protein (input ligand: none) [µM] | apparent KD of MS2 coat protein [1] [µM] | apparent KD of MS2 coat protein [2] [µM] | apparent KD of MS2 coat protein [3] [µM] | apparent KD of MS2 coat protein [4] [µM]
18 | UUAGCGUAAGUAAGGAUAUGCUGGUCGAAAGACCAGCAGAAGGUACAUGAGGAUCACCCAUGUUGAUUCGUUGC [Mod of JL 13 - Jieux - Brourd's mod of Exclusion 4] (Eterna round: R97, puzzle: Brourd's mod of Exclusion 4) | 0.284 | 0.0397 | – | – | – | –
19 | AGGUCACAUGAGGAUCACCCAUGUGAGGAUAUAGACUCAAGAGCUUCGGCUCUCAAGUUUAGAAGGCGCUAUGA [EX1 #51] (Eterna round: R97, puzzle: Exclusion 1) | 0.0258 | 0.0263 | – | – | – | –
20 | ACAAAACAUGAGGAUCACCCAUGUGAGGAUAUGCGAAACAAACAAACAAACAAACAAAGCAGAAGGCACAACAA [Ex 1 Tesla 3] (Eterna round: R96, puzzle: Exclusion 1) | – | – | – | 0.0156 | – | –
21 | UAAAAUAGUGUGAGGAUAUGCUGGUCCUUGGAUCAGCAGAAGGCACAUGAGGAUCACCCAUGUAGUUAAUAAUA [Mat - Exclusion 4 - JL Mod - D25] (puzzle: Brourd's mod of Exclusion 4) | – | – | 0.0368 | – | 0.196 | 0.0344
22 | AUGCCGAGUGUAGGAUAUGGCCCGGAACCACGGCCAGAAGGACAUGAGGAUCACCCAUGUGGCCCGAUAUACACGGUAUCAGAC [Eternabot solution 1] (Eterna round: R96, puzzle: Exclusion NG 1) | 0.0447 | 0.0244 | – | 0.0177 | – | –
23 | CCGUGAGGUAAUAAUCAGUACAUGAGGAUCACCCAUGUCAAGAAGUUGCUCGUCGGUCGGAAAUACGGACGACCCAU [Eternabot (Original) Solution 50] (Eterna round: R97, puzzle: Sensor, turn-off variant 1) | 0.0191 | 0.0179 | – | – | – | –
24 | UAUUUGCAAGCGAGAUCCCACAUGAGGAUCACCCAUGUUCUUGGAAAGUACAGAAUUACUGUACAAGCUCGUCUUAU [Winner reversed engineered 32] (Eterna round: R97, puzzle: Sensor, turn-off variant 1) | 0.0221 | 0.0257 | – | – | – | –
25 | ACAUGUUGUGCAGGAUAUGGGACACAUGAGGAUCACCCAUGUGGCUACAUGUCAUACCAAGCGUCUCAGAAGGGUAUUAACAUG [Ex NG2 #37] (Eterna round: R96, puzzle: Exclusion NG 2) | 0.0319 | 0.0232 | – | 0.0248 | – | –
26 | AAGUCAGCAGGAUAUGCGAUGUUGGGCUAGGUAGCGUGACCACAUGAGGAUCACCCAUGUAGAAGGGCUGGCUA [EX2 Malc#36] (Eterna round: R96, puzzle: Exclusion 2) | 0.0456 | 0.0297 | – | 0.0219 | – | –
27 | GGAUCGAAUGUGAGGAUAUGCAGGUCCUUGGAUCUGCAGAAGGCACAUGAGGAUCACCCAUGUGAUACCGAUCC [Mat - Exclusion 4 - Eli Mod - D42] (Eterna round: R97, puzzle: Brourd's mod of Exclusion 4) | 0.148 | 0.455 | – | – | – | –
28 | AGAGGACAUGAGGAUCACCCAUGUAAGGAUAUGCGGAGAGUUUGGAGAGGUCGGGUAGGCAGAAGGUACAGGAG [JR_Exclu1_Sub050] (puzzle: Exclusion 1) | – | – | 0.0925 | – | 0.0822 | 0.0894
29 | AGUAUGCGGCAGGAUAUCCAUCCGCGGAAAGGUGGAGAAGGGCUGACAUGAGGAUCACCCAUGUGCGUCCUGUA [salish99_ex6_r4_029] (Eterna round: R97, puzzle: Exclusion 6) | 0.0335 | 0.0204 | – | – | – | –
30 | UUGUUAUGUGUAGGAUAUGCGUAUUAUUAUUAUGCAGAAGGACAUGAGGAUCACCCAUGUGUAUUAUUAUUAUAUAUUAUAUAU [Title] (Eterna round: R96, puzzle: Exclusion NG 1) | 0.0412 | 0.022 | – | 0.0204 | – | –
31 | GGGAAGAACCAACAAGCAAACAUGAGGAUCACCCAUGUAGUAAGAGAAAUUGAGGUGAUUCAGAGAGCUCGACUUAU [AK-miRNA-r3-7.1] (Eterna round: R97, puzzle: Sensor, turn-off variant 1) | 0.367 | 0.359 | – | – | – | –
32 | AGAGAAUAGGUAGGAUAUCUUAAUAGAAAGAAUAGAGAAGGACCACAUGAGGAUCACCCAUGUGAUGUCUUGAGACUACAUGGU [Prohibition 32 - Jieux - Exclusion NG 1] (Eterna round: R96, puzzle: Exclusion NG 1) | – | – | – | 0.0133 | – | –
33 | UAUUAGCAAGCGAGAUCCCACAUGAGGAUCACCCAUGUAAUAAGCAUCCAGAAUUACUGGGUGCAAGCUCGUCUUAU [Winner reversed engineered 10] (Eterna round: R97, puzzle: Sensor, turn-off variant 1) | 0.0454 | 0.0429 | – | – | – | –
